B1: Nodal: Recombinant Mouse Nodal (R&D); acts on cell surface receptors common with Activin and activates Smad2/3 signals (protein, UniProt P43021 245-354, looked up)
Nodal: HHLPDRSQLCRRVKFQVDFNLIGWGSWIIYPKQYNAYRCEGECPNPVGEEFHPTNHAYIQSLLKRYQPHRVPSTCCAPVKTKPLSMLYVDNGRVLLEHHKDMIVEECGCL
B2: Activin: Human Activin (R&D); acts on cell surface receptors common with Nodal and activates Smad2/3 signals (protein, UniProt P08476 311-426, looked up)
Inhibin beta A chain: GLECDGKVNICCKKQFFVSFKDIGWNDWIIAPSGYHANYCEGECPSHIAGTSGSSLSFHSTVINHYRMRGHSPFANLKSCCVPTKLRPMSMLYYDDGQNIIKKDIQNMIVEECGCS
B3: TGF-beta2: growth factor tested at 1000 ng/ml in place of Nodal; printed as 'TGF-beta1 or 2' (protein, UniProt P61812 303-414, looked up)
Transforming growth factor …: ALDAAYCFRNVQDNCCLRPLYIDFKRDLGWKWIHEPKGYNANFCAGACPYLWSSDTQHSRVLSLYNTINPEASASPCCVSQDLEPLTILYYIGKTPKIEQLSNMIVKSCKCS

System: Rx-GFP ES cells
Assay: SFEBq culture with purified laminin/entactin and Nodal/Activin, formation of RxGFP+ vesicles and cup structures (Example 6)
Type: cell-based, mouse
Settings: for replacement of the retinal inducing activity of Nodal: 1000 ng/ml; for replacement of the retinal inducing activity of Nodal / appearance of Rx-GFP+ epithelia in SFEBq aggregates / morphology of Rx-GFP+ epithelia: combined with laminin+entactin; for appearance of Rx-GFP+ epithelia in SFEBq aggregates / morphology of Rx-GFP+ epithelia: treatment days 1-7; for appearance of Rx-GFP+ epithelia in SFEBq aggregates: Nodal 500 and 1000 ng/ml, Activin 250 ng/ml, read on day 7; for morphology of Rx-GFP+ epithelia: day 7 and day 10; for effect on neural (Sox1) and retinal (Rx) differentiation: treatment of SFEBq cells from day 0
Description: Rx-GFP ES cells (3000 cells/well, 96-well plate) were cultured in SFEBq culture with G-MEM supplemented with 1.5% KSR. In this experiment, instead of adding Matrigel to culture, purified laminin and entactin (High concentration Laminin/Entactin complex; BD; 120 μg/ml) were added as extracellular matrix proteins on day 1 (24 hours after the onset of differentiation culture). Recombinant Mouse Nodal (R&D; 500-1000 ng/mL) or Human Activin (R&D; 250 ng/ml) was also added on day 1 and the Nodal treatment was continued until day 7. SFEBq aggregates were cultured for 7-10 days and the formation of RxGFP+ vesicles and cup structures were examined under a fluorescent microscope. Nodal and Activin are known to act on common cell surface receptors and activate Smad2/3 signals in the cell.

| Molecule | replacement of the retinal inducing activity of Nodal | appearance of Rx-GFP+ epithelia in SFEBq aggregates | morphology of Rx-GFP+ epithelia | effect on neural (Sox1) and retinal (Rx) differentiation |
| --- | --- | --- | --- | --- |
| TGF-beta1: growth factor tested at 1000 ng/ml in place of Nodal | did not replace the inducing activity of Nodal | – | – | – |
| B1 | – | large patches of Rx-GFP+ epithelia appeared | formed optic vesicle-like sacs on day 7 and later exhibited the optic cup-like morphology on day 10 | inhibited both neural (Sox1) and retinal (Rx) differentiation |
| B2 | – | large patches of Rx-GFP+ epithelia appeared | formed optic vesicle-like sacs on day 7 and later exhibited the optic cup-like morphology on day 10 | inhibited both neural (Sox1) and retinal (Rx) differentiation |
| B3 | did not replace the inducing activity of Nodal | – | – | – |
